Results as given in PMC6750898.

Tests used:
[1] = molecular target: capsid associated protein P30 of bacteriophage PR772 (bacteriophage PR772); assay: cryo-EM structure; icosahedrally averaged (I4) single-particle reconstruction of purified wild-type PR772 virions; overall 2.75 Å, capsid 2.3 Å; de-novo model of the asymmetric unit; difference density map of the vertex region
[2] = molecular target: host-recognition protein P5 of bacteriophage PR772 (bacteriophage PR772); assay: cryo-EM structure; localized asymmetric (C1) reconstruction of the five-fold vertex after capsid signal subtraction (about 10 Å for the class with P2; 4.41 Å for the penton) and focused classification of the penton base (4.25 Å); models fitted as rigid bodies; purified wild-type virions
[3] = molecular target: penton protein P31 of bacteriophage PR772 (bacteriophage PR772); assay: as above
[4] = molecular target: major capsid protein P3 of bacteriophage PR772 (bacteriophage PR772); assay: cryo-EM structure; icosahedrally averaged (I4) single-particle reconstruction of purified wild-type PR772 virions; overall 2.75 Å, capsid 2.3 Å; de-novo model of the asymmetric unit; difference density map of the vertex region

capsid associated protein P30 of bacteriophage PR772 (natural protein)
stoichiometry N [1]: 2

host-recognition protein P5 of bacteriophage PR772 (natural protein)
stoichiometry N [2]: 3 | stoichiometry N (copies of P5 in the penton base) [3]: 3 | stoichiometry N (copies of P31 in the penton base) [3]: 2

major capsid protein P3 of bacteriophage PR772 (natural protein)
stoichiometry N [4]: 3

receptor-binding protein P2 of bacteriophage PR772 (natural protein)
percent of vertex sub-particles with a density representing P2 [2]: 16%
